# In patent publication US20240301038A1:
# Molecular target: SARS-CoV-2 Spike Receptor Binding Domain (RBD) (Sino Biological) (SARS-CoV-2), P0DTC2
# Details: remark: other sources report otherwise
binder,measurement,value
"AB-009620 (antibody, V domains shown) VH: QITLKESGPTLVKPTQTLTLTCTFSGFSLSTSGVGVGWIRQPPGKALEWLALIYWDDDKRYSPSLKSRLTITKDTSKNQVVLTMTNMDPVDTATYYCAHHEVATVFDYWGQGTLVTVSS VL: QSALTQPASVSGSPGQSITISCTGTSSDVGAYNYVSWYQQHPGKAPKLMIYEVSNRPSGVSNRFSGSKSGNTASLTISGLQAEDEADYYCSSYTSSSTVFGGGTKLTVL",Kd,5.99 nM
